Measured values reported in the DeepSol protein solubility set.

Assay: soluble on expression in E. coli; label from the status in PepcDB or PDB records

Soluble on expression in E. coli, not soluble:
MPKLGIKPLRRQQLIDATLRSISERGLQNTTIVSISKIAGMSSGIISHYFGGKKELIEETVSYLLDQLQQSLLERITEENPPAHIRLNLIVEANFTEFQRSLLATKTWLSFWAMSMHDPAMARLQSINSNRLHSNLLFSFKELLDPESAANAAKQTAAMIDGFWLRSALSENSEQEFIAAELLCKKFINDVIKQEISNASN
MGSDKIHHHHHHAAGSPEEDMEDRVRIDPVAGGYYPSISPSAQTRGATPDGETLKDRPIFLLEDGSTIRLVVYDDAKNLLEEYSKAYLVRNAGTSGSSLLYPCEVDDNGAVISSSSTPLYMKAGTYYFRILSPAKALNSKGFVNIGNGEYLLATDDRYTQTAMTAVTITKIDEGGTLNNVQTLYLPPIINQTARMQFTVRAGEGVHTLEMLAEGIEISGIQQPLDNTTSFDWVNGDVLPVKVGDQSASVRITQATRNADNSLVAHTGVLPTDARSHSISVLLNLKVNGNPTQYQMLLTGLYLTAGHSYNYTATVKISNGVTVLTWQNRSWTENVVMDK
MTTSLIHMANHLDASTEEISLNYVLLGHPHHERAQHHPSYMDMIKGAIQAIDNGTGSSKAAILKYIAQNYHVGENLPKVNNHLRSVLKKAVDSGDIEQTRGHGATGSFRMGKECEKNLQVGIPVQTKPMLMLKEVRQKLENISKAEKTKPSTSSMSTNKKGKPISTMKKRGVMSKKRSSKNKMAPKAKSHGLKKKGPATKSSGLVHKAAGAKNEAAPTTKMELRTGTRKSYC
MSLSTIDLHVHSNYSDGIHPPADLVKMAAERGLVAIAIADHDTVDGIDEALIAGARLGVEVVPAVELSAEHGRYRDMHILGYHLDHRDPRLVDMLAEFRINREIRGRAIVDKINQRLADGRKPLLSYDEVLNLAEGAVGRPHIGRMLIERGYARNMEDAFRRYLIPCNVPKRYIPAGDAITEIRRAGGVAVLAHPITVSDDRQVLRGIVSELVALGLDGIEVFNNMCYKDDMLFLEFLCRESGLLMTGGSDFHGFEDDVEIGSGREGHHHHHH
MEHLGKVFREFRTSGNYSLKEAAGESCSTSQLSRFELGESDLAVSRFFEILDNIHVTIENFMDKARNFHNHEHVSMMAQIIPLYYSNDIAGFQKLQREQLEKSKSSTTPLYFELNWILLQGLICQRDASYDMKQDDLGKVADYLFKTEEWTMYELILFGNLYSFYDVDYVTRIGREVMEREEFYQEISRHKRLVLILALNCYQHCLEHSSFYNANYFEAYTEKIIDKGIKLYERNVFHYLKGFALYQKGQCKEGCKQMQEAMHIFDVLGLPEQVAYYQEHYEKFVKS
MGSDKIHHHHHHLITVQDLELRAGARLLMDQVSFRIDKGDKIGLVGRNGAGKTTLTRVLAGEGLPAAGKVTRSGEIGYLPQDPRTPDMEQLARDRILSVRGLDIAVGKLRLAHEEMASEDAAVQRKAMNRYDRLESEFLAAGGYAAEAEAAAICSNLALPDRLLNQPLKTLSGGQRRRVELARILYSDAETMLLDEPTNHLDADSIAWLRDFLKNHQGGLIVISHDTELLEATVNKVFLLDANRAQIDFYNMDWKRYLQQRETDERARKRERANAEKKAQVLFDQANKMRAKATKAVAAQNMAKRAERLLSGLEAVRENDRVAALRFPDPSPCGKTPLTADGLSKSYGSLEIFTDVDLAIDRGSKVVILGLNGAGKTTLLRMLAGVDKPDTGEVIAGHGLKVGYYAQEHETLDVDRTVLQNMRSSAPDMNDSEVRGILGSFLFSGDDVDKPAGVLSGGEKTRLALATIVASSANVLLLDEPTNNLDPASRTEILGALRNYTGAVVLVSHDEGAVEALNPERVVLLPDGVEDHWNEDYLDLITLA
MAKKPTALIILDGFANRESEHGNAVKLANKPNFDRYYNKYPTTQIEASGLDVGLPEGQMGNSEVGHMNIGAGRIVYQSLTRINKSIEDGDFFENDVLNNAIAHVNSHDSALHIFGLLSDGGVHSHYKHLFALLELAKKQGVEKVYVHAFLDGRDVDQKSALKYIEETEAKFNELGIGQFASVSGRYYAMDRDKRWEREEKAYNAIRNFDAPTYATAKEGVEASYNEGLTDEFVVPFIVENQNDGVNDGDAVIFYNFRPDRAAQLSEIFANRAFEGFKVEQVKDLFYATFTKYNDNIDAAIVFEKVDLNNTIGEIAQNNNLTQLRIAETEKYPHVTYFMSGGRNEEFKGERRRLIDSPKVATYDLKPEMSAYEVKDALLEELNKGDLDLIILNFANPDMVGHSGMLEPTIKAIEAVDECLGEVVDKILDMDGYAIITADHGNSDQVLTDDDQPMTTHTTNPVPVIVTKEGVTLRETGRLGDLAPTLLDLLNVEQPEDMTGESLIKH
